Experimental data from patent publication US10738094B2, “Peptides and combination of peptides for use in immunotherapy against ovarian cancer and other cancers” (immatics biotechnologies GmbH, priority 2015, dated 2020).

Molecular target: HLA-A*02:01 (Homo sapiens, UniProt P04439, D140Y/D185E/D98H/E176V/E277Q/G131W/G231S/I119V/I121R/I166T/I218V/L300P/L318F/N151K/N90K/P208A/P217A/Q86G/Q94H/R138H/R169H/T345S)
Experiment: MHC binding assay (UV-ligand exchange, beta2m ELISA)
Conditions: binding to HLA-A*02:01 ranged by peptide exchange yield (UV-ligand exchange, β2m ELISA)
Text: Candidate peptides for T cell based therapies according to the present invention were further tested for their MHC binding capacity (affinity). The individual peptide-MHC complexes were produced by UV-ligand exchange, where a UV-sensitive peptide is cleaved upon UV-irradiation, and exchanged with the peptide of interest as analyzed. Only peptide candidates that can effectively bind and stabilize the peptide-receptive MHC molecules prevent dissociation of the MHC complexes. To determine the yield of the exchange reaction, an ELISA was performed based on the detection of the light chain (β2m) of stabilized MHC complexes. The assay was performed as generally described in Rodenko et al. (Rodenko et al., 2006).
96 well MAXISorp plates (NUNC) were coated over night with 2 ug/ml streptavidin in PBS at room temperature, washed 4× and blocked for 1 h at 37° C. in 2% BSA containing blocking buffer. […] Peptide-MHC monomers of the UV-exchange reaction were diluted 100 fold in blocking buffer. Samples were incubated for 1 h at 37° C., washed four times, incubated with 2 ug/ml HRP conjugated anti-β2m for 1 h at 37° C., washed again and detected with TMB solution that is stopped with […]. Absorption was measured at 450 nm. Candidate peptides that show a high exchange yield (preferably higher than 50%, most preferred higher than 75%) are generally preferred for a generation and production of antibodies or fragments thereof, and/or T cell receptors or fragments thereof, as they show sufficient avidity to the MHC molecules and prevent dissociation of the MHC complexes.

| Substance | Peptide exchange |
| --- | --- |
| 366 (RLLDMGETDLML; listed as Homo sapiens) [compound 366] | “+++” (≥50 = +++) |
| 190 (FLSSLTETI; listed as Homo sapiens) [compound 190] | “+++” (≥50 = +++) |
| 597 (KLLEGQVIQL; listed as Homo sapiens) [compound 597] | “+++” (≥50 = +++) |
| 283 (ALYIGDGYVIHLA; listed as Homo sapiens) [compound 283] | “+++” (≥50 = +++) |
| 374 (FLLQQHLISA; listed as Homo sapiens) [compound 374] | “++” (≥20% = ++) |
| 322 (TLMTSLPAL; listed as Homo sapiens) [compound 322] | “+++” (≥50 = +++) |
| 269 (RVLEVGALQAV; listed as Homo sapiens) [compound 269] | “++” (≥20% = ++) |
| 200 (LLFGSVQEV; listed as Homo sapiens) [compound 200] | “+++” (≥50 = +++) |
| 320 (KMFEFVEPLL; listed as Homo sapiens) [compound 320] | “++++” (≥75% = ++++) |
| 381 (FIDEAYVEV; listed as Homo sapiens) [compound 381] | “++” (≥20% = ++) |
| 385 (SLLEQGLVEA; listed as Homo sapiens) [compound 385] | “++” (≥20% = ++) |
| 189 (ALQRKLPYV; listed as Homo sapiens) [compound 189] | “+++” (≥50 = +++) |
| 458 (SLIDKLYNI; listed as Homo sapiens) [compound 458] | “++” (≥20% = ++) |
| 303 (AILPQLFMV; listed as Homo sapiens) [compound 303] | “++++” (≥75% = ++++) |
| 400 (SLLTEQDLWTV; listed as Homo sapiens) [compound 400] | “++” (≥20% = ++) |
| 510 (KLYSVVSQL; listed as Homo sapiens) [compound 510] | “++” (≥20% = ++) |
| 390 (ALFMKQIYL; listed as Homo sapiens) [compound 390] | “+++” (≥50 = +++) |
| 363 (KVLDVSDLESV; listed as Homo sapiens) [compound 363] | “++” (≥20% = ++) |
| 70 (GLLDYPVGV; listed as Homo sapiens) [compound 70] | “+++” (≥50 = +++) |
| 280 (VLPDPEVLEAV; listed as Homo sapiens) [compound 280] | “+++” (≥50 = +++) |
| 449 (KLAEGLDIQL; listed as Homo sapiens) [compound 449] | “+++” (≥50 = +++) |
| 578 (FLDPGGPMMKL; listed as Homo sapiens) [compound 578] | “+++” (≥50 = +++) |
| 610 (LLAPTPYIIGV; listed as Homo sapiens) [compound 610] | “+++” (≥50 = +++) |
| 39 (SVAPNLPAV; listed as Homo sapiens) [compound 39] | “+++” (≥50 = +++) |
| 26 (ALLELAEEL; listed as Homo sapiens) [compound 26] | “+++” (≥50 = +++) |

| Substance | Peptide exchange |
| --- | --- |
| 594 (IMLKGDNITL; listed as Homo sapiens) [compound 594] | “+++” (≥50 = +++) |
| 446 (QLIPALAKV; listed as Homo sapiens) [compound 446] | “+++” (≥50 = +++) |
| 332 (YLISELEAA; listed as Homo sapiens) [compound 332] | “+++” (≥50 = +++) |
| 282 (LLADVVPTT; listed as Homo sapiens) [compound 282] | “+++” (≥50 = +++) |
| 204 (KIAENVEEV; listed as Homo sapiens) [compound 204] | “++” (≥20% = ++) |
| 393 (GLLDTQTSQVLTA; listed as Homo sapiens) [compound 393] | “++” (≥20% = ++) |
| 102 (YLFESEGLVL; listed as Homo sapiens) [compound 102] | “+++” (≥50 = +++) |
| 42 (VLLQKIVSA; listed as Homo sapiens) [compound 42] | “+++” (≥50 = +++) |
| 345 (VIWKALIHL; listed as Homo sapiens) [compound 345] | “+++” (≥50 = +++) |
| 77 (ILVEADGAWVV; listed as Homo sapiens) [compound 77] | “++++” (≥75% = ++++) |
| 383 (ALLELENSVTL; listed as Homo sapiens) [compound 383] | “+++” (≥50 = +++) |
| 609 (ALWKQLLEL; listed as Homo sapiens) [compound 609] | “+++” (≥50 = +++) |
| 74 (ALLDPEVLSIFV; listed as Homo sapiens) [compound 74] | “+++” (≥50 = +++) |
| 266 (KITDTLIHL; listed as Homo sapiens) [compound 266] | “+++” (≥50 = +++) |
| 354 (LILEGVDTV; listed as Homo sapiens) [compound 354] | “++” (≥20% = ++) |
| 509 (FLFDTKPLIV; listed as Homo sapiens) [compound 509] | “+++” (≥50 = +++) |
| 582 (TLCDVILMV; listed as Homo sapiens) [compound 582] | “+++” (≥50 = +++) |
| 233 (VLSETLYEL; listed as Homo sapiens) [compound 233] | “++” (≥20% = ++) |
| 83 (ILAPTVMMI; listed as Homo sapiens) [compound 83] | “+++” (≥50 = +++) |
| 64 (YAAPGGLIGV; listed as Homo sapiens) [compound 64] | “++” (≥20% = ++) |
| 186 (TLFFQQNAL; listed as Homo sapiens) [compound 186] | “++” (≥20% = ++) |
| 174 (ALAQYLITA; listed as Homo sapiens) [compound 174] | “+++” (≥50 = +++) |
| 299 (YLLETSGNL; listed as Homo sapiens) [compound 299] | “+++” (≥50 = +++) |
| 484 (SLIEKVTQL; listed as Homo sapiens) [compound 484] | “+++” (≥50 = +++) |
| 148 (ALNPEIVSV; listed as Homo sapiens) [compound 148] | “++” (≥20% = ++) |

Continued, values first:

| Peptide exchange | Substance |
| --- | --- |
| “+++” (≥50 = +++) | 17 (GLLPGDRLVSV; listed as Homo sapiens) [compound 17] |
| “+++” (≥50 = +++) | 547 (TLDITPHTV; listed as Homo sapiens) [compound 547] |
| “+++” (≥50 = +++) | 601 (SAFPFPVTV; listed as Homo sapiens) [compound 601] |
| “++” (≥20% = ++) | 405 (ALYDVFLEV; listed as Homo sapiens) [compound 405] |
| “++” (≥20% = ++) | 432 (TLIEESAKV; listed as Homo sapiens) [compound 432] |
| “++” (≥20% = ++) | 146 (SLATAGDGLIEL; listed as Homo sapiens) [compound 146] |
| “++++” (≥75% = ++++) | 100 (YLLSTNAQL; listed as Homo sapiens) [compound 100] |
| “++” (≥20% = ++) | 574 (YLLQEPPRTV; listed as Homo sapiens) [compound 574] |
| “+++” (≥50 = +++) | 475 (LLLNEEALAQI; listed as Homo sapiens) [compound 475] |
| “+++” (≥50 = +++) | 170 (RLQETLSAA; listed as Homo sapiens) [compound 170] |
| “++++” (≥75% = ++++) | 358 (ALDEYTSEL; listed as Homo sapiens) [compound 358] |
| “+++” (≥50 = +++) | 272 (ALGNTVPAV; listed as Homo sapiens) [compound 272] |
| “+++” (≥50 = +++) | 539 (ALFDAQAQV; listed as Homo sapiens) [compound 539] |
| “+++” (≥50 = +++) | 500 (SLMEDQVLQL; listed as Homo sapiens) [compound 500] |
| “+++” (≥50 = +++) | 596 (ALLDQTKTLAESAL; listed as Homo sapiens) [compound 596] |
| “+++” (≥50 = +++) | 59 (IMEDIILTL; listed as Homo sapiens) [compound 59] |
| “+++” (≥50 = +++) | 263 (LLVSNLDFGV; listed as Homo sapiens) [compound 263] |
| “+++” (≥50 = +++) | 369 (GLFPEHLIDV; listed as Homo sapiens) [compound 369] |
| “+++” (≥50 = +++) | 256 (FLPPEHTIVYI; listed as Homo sapiens) [compound 256] |
| “+++” (≥50 = +++) | 325 (FIMPATVADATAV; listed as Homo sapiens) [compound 325] |
| “+++” (≥50 = +++) | 426 (RLADKSVLV; listed as Homo sapiens) [compound 426] |
| “+++” (≥50 = +++) | 444 (GLLRDEALAEV; listed as Homo sapiens) [compound 444] |
